Tested on: human HL60 cells
Test: SWATH-MS proteomics, differential protein representation, akirin2 KO vs WT HL60 cells
Assay type: cell-based
Details: akirin2 KO vs WT HL60 cells
How it was run: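 Read-out is label-free SWATH-MS protein area, globally normalized to total detected-protein area, with identifications held at 1% FDR against a library from information-dependent acquisition.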

[1] = SWATH-MS, sheet "Under-represented in KO"
[2] = sheet "Under-represented in KO"
[3] = SWATH-MS, under-represented in KO

B1: sp¦P24752¦THIL_HUMAN (protein, UniProt P24752 34-427, looked up)
Acetyl-CoA acetyltransferase, …: VSKPTLKEVVIVSATRTPIGSFLGSLSLLPATKLGSIAIQGAIEKAGIPKEEVKEAYMGNVLQGGEGQAPTRQAVLGAGLPISTPCTTINKVCASGMKAIMMASQSLMCGHQDVMVAGGMESMSNVPYVMNRGSTPYGGVKLEDLIVKDGLTDVYNKIHMGSCAENTAKKLNIARNEQDAYAINSYTRSKAAWEAGKFGNEVIPVTVTVKGQPDVVVKEDEEYKRVDFSKVPKLKTVFQKENGTVTAANASTLNDGAAALVLMTADAAKRLNVTPLARIVAFADAAVEPIDFPIAPVYAASMVLKDVGLKKEDIAMWEVNEAFSLVVLANIKMLEIDPQKVNINGGAVSLGHPIGMSGARIVGHLTHALKQGEYGLASICNGGGGASAMLIQKL
- Fold Change [1]: 0.7481
- Log (Fold Change) [1]: -0.126

B2: sp¦Q6RFH5¦WDR74_HUMAN (protein, UniProt Q6RFH5 1-385, looked up)
WD repeat-containing protein …: MAAAAARWNHVWVGTETGILKGVNLQRKQAANFTAGGQPRREEAVSALCWGTGGETQMLVGCADRTVKHFSTEDGIFQGQRHCPGGEGMFRGLAQADGTLITCVDSGILRVWHDKDKDTSSDPLLELRVGPGVCRMRQDPAHPHVVATGGKENALKIWDLQGSEEPVFRAKNVRNDWLDLRVPIWDQDIQFLPGSQKLVTCTGYHQVRVYDPASPQRRPVLETTYGEYPLTAMTLTPGGNSVIVGNTHGQLAEIDLRQGRLLGCLKGLAGSVRGLQCHPSKPLLASCGLDRVLRIHRIQNPRGLEHKVYLKSQLNCLLLSGRDNWEDEPQEPQEPNKVPLEDTETDELWASLEAAAKRKLSGLEQPQGALQTRRRKKKRPGSTSP
- Fold Change [1]: 0.7453
- Log (Fold Change) [1]: -0.1277

B3: sp¦P00966¦ASSY_HUMAN (protein, UniProt P00966 1-412, looked up)
Argininosuccinate synthase: MSSKGSVVLAYSGGLDTSCILVWLKEQGYDVIAYLANIGQKEDFEEARKKALKLGAKKVFIEDVSREFVEEFIWPAIQSSALYEDRYLLGTSLARPCIARKQVEIAQREGAKYVSHGATGKGNDQVRFELSCYSLAPQIKVIAPWRMPEFYNRFKGRNDLMEYAKQHGIPIPVTPKNPWSMDENLMHISYEAGILENPKNQAPPGLYTKTQDPAKAPNTPDILEIEFKKGVPVKVTNVKDGTTHQTSLELFMYLNEVAGKHGVGRIDIVENRFIGMKSRGIYETPAGTILYHAHLDIEAFTMDREVRKIKQGLGLKFAELVYTGFWHSPECEFVRHCIAKSQERVEGKVQVSVLKGQVYILGRESPLSLYNEELVSMNVQGDYEPTDATGFININSLRLKEYHRLQSKVTAK
- Fold Change [2]: 0.3334
- Log (Fold Change) [2]: -0.477

B4: sp¦Q1KMD3¦HNRL2_HUMAN (protein, UniProt Q1KMD3 1-747, looked up)
Heterogeneous nuclear …: MEVKRLKVTELRSELQRRGLDSRGLKVDLAQRLQEALDAEMLEDEAGGGGAGPGGACKAEPRPVAASGGGPGGDEEEDEEEEEEDEEALLEDEDEEPPPAQALGQAAQPPPEPPEAAAMEAAAEPDASEKPAEATAGSGGVNGGEEQGLGKREEDEPEERSGDETPGSEVPGDKAAEEQGDDQDSEKSKPAGSDGERRGVKRQRDEKDEHGRAYYEFREEAYHSRSKSPLPPEEEAKDEEEDQTLVNLDTYTSDLHFQVSKDRYGGQPLFSEKFPTLWSGARSTYGVTKGKVCFEAKVTQNLPMKEGCTEVSLLRVGWSVDFSRPQLGEDEFSYGFDGRGLKAENGQFEEFGQTFGENDVIGCFANFETEEVELSFSKNGEDLGVAFWISKDSLADRALLPHVLCKNCVVELNFGQKEEPFFPPPEEFVFIHAVPVEERVRTAVPPKTIEECEVILMVGLPGSGKTQWALKYAKENPEKRYNVLGAETVLNQMRMKGLEEPEMDPKSRDLLVQQASQCLSKLVQIASRTKRNFILDQCNVYNSGQRRKLLLFKTFSRKVVVVVPNEEDWKKRLELRKEVEGDDVPESIMLEMKANFSLPEKCDYMDEVTYGELEKEEAQPIVTKYKEEARKLLPPSEKRTNRRNNRNKRNRQNRSRGQGYVGGQRRGYDNRAYGQQYWGQPGNRGGYRNFYDRYRGDYDRFYGRDYEYNRYRDYYRQYNRDWQSYYYHHPQDRDRYYRNYYGYQGYR
- Fold Change [3]: 0.7447
- Log (Fold Change) [3]: -0.128

B5: sp¦P36957¦ODO2_HUMAN (protein, UniProt P36957 68-453, looked up)
Dihydrolipoyllysine-residue …: DDLVTVKTPAFAESVTEGDVRWEKAVGDTVAEDEVVCEIETDKTSVQVPSPANGVIEALLVPDGGKVEGGTPLFTLRKTGAAPAKAKPAEAPAAAAPKAEPTAAAVPPPAAPIPTQMPPVPSPSQPPSGKPVSAVKPTVAPPLAEPGAGKGLRSEHREKMNRMRQRIAQRLKEAQNTCAMLTTFNEIDMSNIQEMRARHKEAFLKKHNLKLGFMSAFVKASAFALQEQPVVNAVIDDTTKEVVYRDYIDISVAVATPRGLVVPVIRNVEAMNFADIERTITELGEKARKNELAIEDMDGGTFTISNGGVFGSLFGTPIINPPQSAILGMHGIFDRPVAIGGKVEVRPMMYVALTYDHRLIDGREAVTFLRKIKAAVEDPRVLLLDL
- Fold Change [1]: 0.7478
- Log (Fold Change) [1]: -0.1262

B6: sp¦P49916¦DNLI3_HUMAN (protein, UniProt P49916 43-1009, looked up)
DNA ligase 3: LLHGHPLFLRRKPVLSFQGSHLRSRATYLVFLPGLHVGLCSGPCEMAEQRFCVDYAKRGTAGCKKCKEKIVKGVCRIGKVVPNPFSESGGDMKEWYHIKCMFEKLERARATTKKIEDLTELEGWEELEDNEKEQITQHIADLSSKAAGTPKKKAVVQAKLTTTGQVTSPVKGASFVTSTNPRKFSGFSAKPNNSGEAPSSPTPKRSLSSSKCDPRHKDCLLREFRKLCAMVADNPSYNTKTQIIQDFLRKGSAGDGFHGDVYLTVKLLLPGVIKTVYNLNDKQIVKLFSRIFNCNPDDMARDLEQGDVSETIRVFFEQSKSFPPAAKSLLTIQEVDEFLLRLSKLTKEDEQQQALQDIASRCTANDLKCIIRLIKHDLKMNSGAKHVLDALDPNAYEAFKASRNLQDVVERVLHNAQEVEKEPGQRRALSVQASLMTPVQPMLAEACKSVEYAMKKCPNGMFSEIKYDGERVQVHKNGDHFSYFSRSLKPVLPHKVAHFKDYIPQAFPGGHSMILDSEVLLIDNKTGKPLPFGTLGVHKKAAFQDANVCLFVFDCIYFNDVSLMDRPLCERRKFLHDNMVEIPNRIMFSEMKRVTKALDLADMITRVIQEGLEGLVLKDVKGTYEPGKRHWLKVKKDYLNEGAMADTADLVVLGAFYGQGSKGGMMSIFLMGCYDPGSQKWCTVTKCAGGHDDATLARLQNELDMVKISKDPSKIPSWLKVNKIYYPDFIVPDPKKAAVWEITGAEFSKSEAHTADGISIRFPRCTRIRDDKDWKSATNLPQLKELYQLSKEKADFTVVAGDEGSSTTGGSSEENKGPSGSAVSRKAPSKPSASTKKAEGKLSNSNSKDGNMQTAKPSAMKVGEKLATKSSPVKVGEKRKAADETLCQTKVLLDIFTGVRLYLPPSTPDFSRLRRYFVAFDGDLVQEFDMTSATHVLGSRDKNPAAQQVSPEWIWACIRKRRLVAPC
- Fold Change [3]: 0.7417
- Log (Fold Change) [3]: -0.1297

B7: sp¦Q99986¦VRK1_HUMAN (protein, UniProt Q99986 1-396, looked up)
Serine/threonine-protein …: MPRVKAAQAGRQSSAKRHLAEQFAVGEIITDMAKKEWKVGLPIGQGGFGCIYLADMNSSESVGSDAPCVVKVEPSDNGPLFTELKFYQRAAKPEQIQKWIRTRKLKYLGVPKYWGSGLHDKNGKSYRFMIMDRFGSDLQKIYEANAKRFSRKTVLQLSLRILDILEYIHEHEYVHGDIKASNLLLNYKNPDQVYLVDYGLAYRYCPEGVHKEYKEDPKRCHDGTIEFTSIDAHNGVAPSRRGDLEILGYCMIQWLTGHLPWEDNLKDPKYVRDSKIRYRENIASLMDKCFPEKNKPGEIAKYMETVKLLDYTEKPLYENLRDILLQGLKAIGSKDDGKLDLSVVENGGLKAKTITKKRKKEIEESKEPGVEDTEWSNTQTEEAIQTRSRTRKRVQK
- Fold Change [3]: 0.7448
- Log (Fold Change) [3]: -0.128
